{"source": "paper doi:10.1101/2022.02.17.480967", "binders": {"B1": {"name": "fluorescein-labeled 30-mer DNA (printed strands are 27 nt) (dsDNA)", "DNA 1": "ATCATTAATATGAATTCGCCACATGCA", "DNA 2": "TGCATGTGGCGAATTCATATTAATGAT"}}, "target": "H1.2 2-108 (UniProt P16403 2-108)", "sequence (P16403 2-108)": "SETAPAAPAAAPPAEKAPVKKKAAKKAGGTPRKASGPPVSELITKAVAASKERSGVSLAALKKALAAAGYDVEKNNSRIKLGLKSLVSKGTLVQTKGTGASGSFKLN", "assay": "fluorescence polarization"}
{"binder": "B1", "values": [{"measurement": "binding signal", "result": "50 fold lower affinity than full-length H1.2"}]}
